Substitutions are numbered along the chain they refer to.
Key:
[1] = molecular target: T1, B7-H3 IgV2 (B7-H3 partial protein, on transfected NIH-3T3 cells) (human, UniProt Q5ZPR3 245-534); assay: flow cytometry on NIH-3T3 cells transfected with the B7-H3 IgV2 expression vector; fluorescein anti-mouse IgG secondary; FL1 Log histogram
T1 construct: expressed on cells from pFLAG-myc-CMV-19-DEST; leader or tag from the vector not described
T1 sequence: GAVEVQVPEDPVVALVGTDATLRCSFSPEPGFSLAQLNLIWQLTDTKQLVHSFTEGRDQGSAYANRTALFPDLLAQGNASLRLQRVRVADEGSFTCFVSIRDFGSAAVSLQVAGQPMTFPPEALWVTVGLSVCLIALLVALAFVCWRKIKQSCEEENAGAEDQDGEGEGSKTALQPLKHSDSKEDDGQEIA
Description: (§1) The binding specificity, for B7-H3, of the antibody produced by the hybridoma which immunoprecipitated the B7-H3 variant 1 identified by MS was confirmed by a flow cytometric method. The cell suspension prepared in Example 3)-2 was centrifuged, and the supernatant was removed. Then, the hybridoma culture supernatant was added to the NIH-3T3 cells transfected with each vector to suspend the cells, and the cells were left to stand at 4° C. for 1 hour.
(§2) It was examined as to which domain of B7-H3 the M30 binds by a flow cytometric method in the same manner as in Example 3)-3. The NIH-3T3 cells transfected with each of the expression vectors for B7-H3 partial proteins prepared in Example 1)-1-3 were used.

[2] = molecular target: B7-H1 (B7 family protein, on transfected 293T cells) (Homo sapiens (Human), UniProt Q9NZQ7 19-290); assay: flow cytometry on transfected 293T cells
B7-H1 (B7 family protein, on transfected 293T cells), sequence (Q9NZQ7 19-290 limits assumed): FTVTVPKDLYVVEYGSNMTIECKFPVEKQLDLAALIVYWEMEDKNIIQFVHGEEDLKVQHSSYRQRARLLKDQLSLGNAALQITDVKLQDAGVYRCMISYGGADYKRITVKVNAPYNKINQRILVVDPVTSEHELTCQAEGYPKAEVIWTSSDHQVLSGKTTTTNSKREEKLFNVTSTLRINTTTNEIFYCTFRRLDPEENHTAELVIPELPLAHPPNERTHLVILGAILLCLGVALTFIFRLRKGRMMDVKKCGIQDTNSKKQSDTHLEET

[3] = molecular target: T2, CD86 (B7 family protein, on transfected 293T cells) (Homo sapiens (Human), UniProt P42081 24-329); assay: flow cytometry on transfected 293T cells
T2 sequence: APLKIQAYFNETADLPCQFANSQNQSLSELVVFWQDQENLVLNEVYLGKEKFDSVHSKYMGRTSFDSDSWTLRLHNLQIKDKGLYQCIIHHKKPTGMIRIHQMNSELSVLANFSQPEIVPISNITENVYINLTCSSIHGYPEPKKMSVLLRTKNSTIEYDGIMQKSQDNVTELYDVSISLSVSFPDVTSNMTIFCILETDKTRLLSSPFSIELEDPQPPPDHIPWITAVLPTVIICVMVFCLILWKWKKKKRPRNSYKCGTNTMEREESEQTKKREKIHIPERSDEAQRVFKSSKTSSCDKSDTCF

[4] = molecular target: T3, B7-H4 (B7 family protein, on transfected 293T cells) (Homo sapiens (Human), UniProt Q7Z7D3 25-282); assay: flow cytometry on transfected 293T cells
T3 sequence: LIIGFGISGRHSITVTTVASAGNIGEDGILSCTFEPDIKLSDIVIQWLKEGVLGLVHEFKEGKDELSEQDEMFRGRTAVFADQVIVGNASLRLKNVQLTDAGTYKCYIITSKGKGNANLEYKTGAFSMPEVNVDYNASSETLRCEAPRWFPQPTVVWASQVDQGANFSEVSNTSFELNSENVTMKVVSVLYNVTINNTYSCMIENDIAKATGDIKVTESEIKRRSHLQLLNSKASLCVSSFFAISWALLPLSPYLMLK

[5] = molecular target: T4, B7RP-1 (B7 family protein, on transfected 293T cells) (Homo sapiens (Human), UniProt O75144 19-302); assay: flow cytometry on transfected 293T cells
T4 sequence: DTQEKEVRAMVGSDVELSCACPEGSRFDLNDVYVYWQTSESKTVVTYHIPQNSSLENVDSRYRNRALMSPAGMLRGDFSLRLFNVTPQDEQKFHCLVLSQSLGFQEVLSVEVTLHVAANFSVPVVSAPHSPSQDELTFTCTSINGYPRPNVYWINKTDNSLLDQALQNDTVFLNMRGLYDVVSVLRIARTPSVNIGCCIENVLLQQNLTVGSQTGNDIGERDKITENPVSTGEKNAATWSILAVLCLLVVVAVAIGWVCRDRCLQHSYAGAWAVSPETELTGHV

[6] = molecular target: T5, CD80 (B7 family protein, on transfected 293T cells) (Homo sapiens (Human), UniProt P33681 35-288); assay: flow cytometry on transfected 293T cells
T5 sequence: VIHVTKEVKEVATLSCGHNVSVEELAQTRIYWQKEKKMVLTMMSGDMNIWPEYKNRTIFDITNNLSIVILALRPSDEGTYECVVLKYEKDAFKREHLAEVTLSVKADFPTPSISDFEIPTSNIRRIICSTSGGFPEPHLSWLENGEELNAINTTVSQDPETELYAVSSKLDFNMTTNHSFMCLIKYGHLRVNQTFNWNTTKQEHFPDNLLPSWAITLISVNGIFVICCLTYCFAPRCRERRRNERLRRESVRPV

[7] = molecular target: T6, extracellular domain polypeptide of a recombinant B7-H3 variant 2 antigen (R&D Systems, Inc., #2318-B3-050/CF) (human, UniProt Q5ZPR3 29-466); assay: competition ELISA on plate-coated B7-H3 variant 2 extracellular domain polypeptide; competitor biotinylated M30 (bM30, 5 ug/ml), detected with streptavidin-HRP, OD 450 nm
T6 construct: Bought recombinant protein; also called recombinant B7-H3 antigen; B7-H3 antigen
T6 sequence: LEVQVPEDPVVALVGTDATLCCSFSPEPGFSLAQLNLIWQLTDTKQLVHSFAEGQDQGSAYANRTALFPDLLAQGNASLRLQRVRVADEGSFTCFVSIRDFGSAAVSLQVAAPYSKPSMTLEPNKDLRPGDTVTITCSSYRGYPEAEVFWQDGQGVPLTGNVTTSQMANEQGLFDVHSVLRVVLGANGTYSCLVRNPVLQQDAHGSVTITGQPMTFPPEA
Description: Each of the extracellular domain polypeptide of the B7-H3 variant 1 (manufactured by R&D Systems, Inc., #1949-B3-050/CF) and the extracellular domain polypeptide of the B7-H3 variant (manufactured by R&D Systems, Inc., #2318-B3-050/CF) was diluted to 0.5 μg/ml with a coating buffer and the resulting solution was dispensed at 100 μL/well in an immunoplate (manufactured by Nunc, Inc., #442404). Then, the plate was left to stand overnight at 4° C., whereby the protein was adsorbed to the plate. On the next day, an assay diluent was dispensed at 200 μL/well, and the plate was left to stand at room temperature for 4 hours.

[8] = molecular target: T6, extracellular domain polypeptide of a …; assay: SPR, antibody captured on immobilized anti-mouse IgG, B7-H3 variant 2 extracellular domain as analyte; M30 mouse antibody, captured on anti-mouse IgG
Description: The affinity between the M30 antibody or the cM30 antibody and the B7-H3 antigen was measured by a surface plasmon resonance (SPR) device (GE Healthcare Corporation). According to a common procedure, an anti-mouse IgG or an anti-human IgG antibody was immobilized on a sensor chip, and then, the M30 antibody sample or the cM30 antibody was bound thereto. Thereafter, an extracellular domain polypeptide of a recombinant B7-H3 variant 2 antigen (manufactured by R&D Systems, Inc., #2318-B3-050/CF) was added thereto at different concentrations, and the amount of the antigen bound to the antibody in a running buffer (phosphate buffer, 0.05% SP20) was measured over time. The measured amount was analyzed with a dedicated software (BIAevaluation Version 4.1, GE Healthcare Corporation) and a dissociation constant was calculated.

[9] = molecular target: T7, B7-H3 IgV1 (B7-H3 partial protein, on transfected NIH-3T3 cells) (human, UniProt Q5ZPR3 27-534); assay: flow cytometry on NIH-3T3 cells transfected with the B7-H3 IgV1 expression vector; fluorescein anti-mouse IgG secondary; FL1 Log histogram
T7 construct: expressed on cells from pFLAG-myc-CMV-19-DEST; leader or tag from the vector not described
T7 sequence: T1 sequence with V3L, R23C, T54A, R57Q
Description: as §1, §2

binding result [1]: no binding | binding result [2]: no binding | binding result [3]: no binding | binding result [4]: no binding | binding result [5]: no binding | binding result [6]: no binding | IC50 (read off the curve) [7]: ~0.5 µg/mL | Kd [8]: 5.89 nM | binding result [9]: no binding
B1: M30 antibody (mouse anti-human B7-H3 monoclonal antibody produced by B7-H3 hybridoma M30) (antibody, mouse IgG2a, kappa)
heavy: EVQLQQSGPELVKPGASVKMSCKASGYTFTNYVMHWVKQKPGQGLEWIGYINPYNDDVKYNEKFKGKATQTSDKSSSTAYMELSSLTSEDSAVYYCARWGYYGSPLYYFDYWGQGTTLTVSSAKTTAPSVYPLAPVCGDTTGSSVTLGCLVKGYFPEPVTLTWNSGSLSSGVHTFPAVLQSDLYTLSSSVTVTSSTWPSQSITCNVAHPASSTKVDKKIEPRGPTIKPCPPCKCPAPNLLGGPSVFIFPPKIKDVLMISLSPIVTCVVVDVSEDDPDVQISWFVNNVEVHTAQTQTHREDYNSTLRVVSALPIQHQDWMSGKEFKCKVNNKDLPAPIERTISKPKGSVRAPQVYVLPPPEEEMTKKQVTLTCMVTDFMPEDIYVEWTNNGKTELNYKNTEPVLDSDGSYFMYSKLRVEKKNWVERNSYSCSVVHEGLHNHHTTKSFSRTPGK
light: QIVLSQSPTILSASPGEKVTMTCRASSRLIYMHWYQQKPGSSPKPWIYATSNLASGVPARFSGSGSGTSYSLTISRVEAEDAATYYCQQWNSNPPTFGTGTKLELKRADAAPTVSIFPPSSEQLTSGGASVVCFLNNFYPKDINVKWKIDGSERQNGVLNSWTDQDSKDSTYSMSSTLTLTKDEYERHNSYTCEATHKTSTSPIVKSFNRNEC
notes: Mouse IgG2a, kappa; Used as hybridoma culture supernatant in the flow cytometry and as purified antibody in SPR and ELISA; also called mouse antibody M30
